# Reference: publication PMC10040874, “Burst kinetics and CNNM binding are evolutionarily conserved properties of phosphatases of regenerating liver” (The Journal of Biological Chemistry, 2023)
# B1: human CNNM3 CBS-pair domain (domain or fragment)
# chain: LRCRTVEDVLTPLEDCFMLDASTVLDFGVLASIMQSGHTRIPVYEEERSNIVDMLYLKDLAFVDPEDCTPLSTITRFYNHPLHFVFNDTKLDAVLEEFKRGKSHLAIVQKVNNEGEGDPFYEVLGLVTLEDVIEEIIRSEILDE
# notes: CBS-pair domain of human CNNM3; the ITC methods call all the titrated domains GST-CBS-pairs, the human one included; also called hCNNM3; GST-CBS-pair; source: E. coli BL21(DE3), purified; not shown: GST, N-terminal, kept
# B2: CBS-pair domain of a C. elegans CNNM protein (the one of two expressed that bound with 13 μM affinity) (domain or fragment)
# chain: FKMVLGALELYDKTVAHAMTRYEDIFMLPHTLTLGAGMVTQILDMGYTRIPIYENDRKNIVALLFVKDLALLDPDDNHNVMKIASIYNHEVRRVLVDMPLRNMLEEFKRGEYHMALVERLVEQEDKDPIYELCGLITLEDIIEEIIQCEIIDE
# modifications: Assigning the 13 uM binder to CNNM3 is inferred from listing order (Figure 4 not in text)
# B3: Drosophila melanogaster CNNM CBS-pair domain, GST-tagged (domain or fragment, D. melanogaster)
# chain: VNIISGALELRKKTVADVMTHINDAFMLSLDALLDFETVSEIMNSGYSRIPVYDGDRKNIVTLLYIKDLAFVDTDDNTPLKTLCEFYQNPVHFVFEDYTLDIMFNQFKEGTIGHIAFVHRVNNEGDGDPFYETVGLVTLEDVIEELIQAEIVDE
# notes: CBS-pair domain of the Drosophila CNNM protein encoded by the uex (unextended) gene; also called Drosophila CNNM; dCNNM; source: E. coli BL21(DE3), purified (glutathione-Sepharose, Superdex-75); not shown: GST, N-terminal, kept
# B4: CBS-pair domain of a C. elegans CNNM protein (the one of two expressed that bound with 1 μM affinity) (domain or fragment)
# chain: LKIAVGAMEIADKVVKDVMTKIEDVFMLPDTTVLNAKTVMEIVKMGYTRIPVYQYGDKNNVTDMLFVKDLALLDPDDNFTVKTVCGYHKHPVKFVMNDTPLPNLLEAFKKGEGHLAMVKRLINTDDKHDPSYVLVGVVTLEDIVEEILQAEINDE
# modifications: Table S2: only CNNM1 (376-530) and CNNM3 (375-527) gave protein; assigning the 1 uM binder to CNNM1 is inferred from listing order (Figure 4 not in text)
# B5: Drosophila melanogaster PRL (wild-type) (enzyme, D. melanogaster, UniProt O61722 1-176, looked up)
# chain: MSITMRQKDLRPAPALIEYKGMKFLITDRPSDITINHYIMELKKNNVNTVVRVCEPSYNTDELETQGITVKDLAFEDGTFPPQQVVDEWFEVLKDKYQQNPEACVAVHCVAGLGRAPVLVALALIELGLKYEAAVEMIRDKRRGAINAKQLSFLEKYKPKARLKHKNGHKNSCSVQ
# notes: the single PRL of D. melanogaster, cloned without the C-terminal prenylation site; also called Drosophila PRL; fly PRL; source: E. coli BL21(DE3), purified (TALON Co2+ resin, Superdex-75)
# What was measured:
# Experiment in all cases: ITC; VP-ITC, 20 °C, 20 mM Hepes pH 7.5, 100 mM NaCl, 5 mM TCEP; GST-CBS-pairs titrated with PRL; single site-binding model
# Conditions in all cases: both partners purified
# human PRL2 = target: T1, human PRL2 (human, UniProt Q12974 1-163)
# T1 construct: human phosphatase of regenerating liver 2 (PRL2); also called hPRL2; source: E. coli BL21(DE3), purified (TALON Co2+ resin, Superdex-75)
# T1 sequence: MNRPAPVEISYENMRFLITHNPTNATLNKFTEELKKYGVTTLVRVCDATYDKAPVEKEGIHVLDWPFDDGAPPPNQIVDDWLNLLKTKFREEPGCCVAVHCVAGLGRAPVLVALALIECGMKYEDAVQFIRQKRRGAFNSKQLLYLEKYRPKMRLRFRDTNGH
# [1] = target: T2, Caenorhabditis elegans PRL (C. elegans)
# T2 construct: the single PRL of C. elegans, cloned without the C-terminal prenylation site; also called C. elegans PRL; source: E. coli BL21(DE3), purified (TALON Co2+ resin, Superdex-75)
# [2] = target: B5
# [3] = target: B3
binder,measurement,setting,value
B1,binding result,human PRL2,binds
B2,Kd,[1],13000 nM
B3,Kd,[2],350 nM
B4,Kd,[1],1000 nM
B5,fold weaker affinity than the human complex,[3],20 fold
